The assay concerns the target CD8+ T cells (T cell receptors) of CMV-seropositive human donors. Description: flow cytometry, tetramer staining of CD8+ cells; background that was subtracted.

“And” between values parts separate entries of the source, which are not always exact repeats. Equal values may be shown once.

Take “HIV pol464-472 control tetramer (from UniProt P61769 21-119) (peptide-MHC)”: the CD8+ binding percentages to control tetramer is 0.07% and 0.1%.

Values taken from US20040265325A1.
